Measured values: CN114805579A (UNIV ZHENGZHOU, dated 2022)

Key:
[1] = molecular target: hACE2-ecto重组蛋白 (人ACE2胞外区, C端6×His标签) (human, UniProt Q9BYF1 18-740)
人ACE2 (293T-hACE2细胞表面) = 人ACE2 (293T-hACE2细胞表面) (human, UniProt Q9BYF1 18-805); assay: cell-based or functional assay
人ACE2 (293T-hACE2细胞表面), sequence (Q9BYF1 18-805): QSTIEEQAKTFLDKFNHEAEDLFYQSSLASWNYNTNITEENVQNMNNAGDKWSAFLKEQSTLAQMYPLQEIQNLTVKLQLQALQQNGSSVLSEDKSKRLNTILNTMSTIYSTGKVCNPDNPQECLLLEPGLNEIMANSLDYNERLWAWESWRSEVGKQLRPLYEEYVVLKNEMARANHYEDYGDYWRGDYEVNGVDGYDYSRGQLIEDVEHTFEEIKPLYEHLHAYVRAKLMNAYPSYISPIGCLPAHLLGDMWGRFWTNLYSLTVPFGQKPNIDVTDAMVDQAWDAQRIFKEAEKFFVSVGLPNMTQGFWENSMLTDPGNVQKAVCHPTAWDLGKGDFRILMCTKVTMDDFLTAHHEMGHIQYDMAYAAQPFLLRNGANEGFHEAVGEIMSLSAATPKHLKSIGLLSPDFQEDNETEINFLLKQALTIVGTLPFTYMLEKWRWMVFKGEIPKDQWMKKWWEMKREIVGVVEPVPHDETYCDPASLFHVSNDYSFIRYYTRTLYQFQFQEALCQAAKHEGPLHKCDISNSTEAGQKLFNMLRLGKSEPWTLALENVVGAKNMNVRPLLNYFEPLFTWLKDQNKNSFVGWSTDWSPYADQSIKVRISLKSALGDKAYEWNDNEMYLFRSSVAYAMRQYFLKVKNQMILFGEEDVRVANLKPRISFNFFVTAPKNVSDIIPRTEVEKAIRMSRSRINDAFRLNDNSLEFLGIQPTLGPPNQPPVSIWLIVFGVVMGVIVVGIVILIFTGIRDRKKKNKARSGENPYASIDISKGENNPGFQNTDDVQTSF

hACE2-ecto重组蛋白 (人ACE2胞外区, C端6×His标签), sequence (Q9BYF1 other isoform, or with tags, fused parts or gaps): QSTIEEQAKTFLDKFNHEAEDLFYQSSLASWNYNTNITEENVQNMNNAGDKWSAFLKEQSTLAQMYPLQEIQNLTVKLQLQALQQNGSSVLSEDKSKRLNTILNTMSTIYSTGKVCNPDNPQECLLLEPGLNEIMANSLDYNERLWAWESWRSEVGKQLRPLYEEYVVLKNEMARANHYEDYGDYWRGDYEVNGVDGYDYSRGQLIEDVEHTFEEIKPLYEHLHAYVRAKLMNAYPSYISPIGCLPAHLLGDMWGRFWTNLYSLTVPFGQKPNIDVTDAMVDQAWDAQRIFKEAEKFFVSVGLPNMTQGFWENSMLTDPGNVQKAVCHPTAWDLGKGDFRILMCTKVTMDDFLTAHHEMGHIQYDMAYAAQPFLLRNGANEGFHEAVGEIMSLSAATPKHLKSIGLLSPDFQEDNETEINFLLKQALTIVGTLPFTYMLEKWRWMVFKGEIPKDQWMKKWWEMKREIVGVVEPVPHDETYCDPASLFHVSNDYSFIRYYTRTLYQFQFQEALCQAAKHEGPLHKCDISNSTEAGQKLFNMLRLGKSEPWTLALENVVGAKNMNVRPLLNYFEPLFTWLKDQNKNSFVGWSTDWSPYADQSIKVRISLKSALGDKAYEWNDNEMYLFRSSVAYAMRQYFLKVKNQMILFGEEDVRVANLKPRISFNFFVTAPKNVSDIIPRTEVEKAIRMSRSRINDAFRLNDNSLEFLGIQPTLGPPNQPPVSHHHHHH

B1: 抗人ACE2蛋白单克隆抗体2D6 (antibody, V domains shown)
VH: EVKLVESGGGLVQPGGSLRLSCATSGFTFTDYYMSWVRQPPGKALEWLGFIRNRPNDYTTEYSASVKGRFTISRDNSQSILYLQMNTLRAEDSATYYCARDRGLRQAMDYWGQGTSVTVSS
VL: QIVLTQSPAIMSASPGEKVTMTCTASSSVTYMHWYQQKSGTSPKRWIYDTSKLASGVPGRFSGSGSGTSYSLTISSMEAEDAATYFCQQWSFNPLTFGSGTKLEIK
- EC50 [1]: 8.41 ng/mL
- 假病毒阻断试验 IC50, SARS-CoV-2 Delta(B.1.617.2)假病毒感染293T-hACE2细胞 (荧光素酶活性) (人ACE2 (293T-hACE2细胞表面)): 0.346 µg/mL
- 假病毒阻断试验 IC50, SARS-CoV-2 Omicron(B.1.1.529)假病毒感染293T-hACE2细胞 (荧光素酶活性) (人ACE2 (293T-hACE2细胞表面)): 0.139 µg/mL
- 假病毒阻断试验 IC50, SARS-CoV-2野生型(Wuhan-1)假病毒感染293T-hACE2细胞 (荧光素酶活性) (人ACE2 (293T-hACE2细胞表面)): 0.164 µg/mL
